Test results published in patent US20020045192A1, “Arf and HDM2 interaction domains and methods of use thereof” (St. Jude Children's Research Hospital, priority 2001, published 2002).
Where no end group is shown, it is not given here.

Target: T1, Hdm2 210-304 (Homo sapiens, UniProt Q00987)
T1 construct: poly-His (thrombin-cleavable, from pET28a) (cleaved yes); made in house; host or cells: E. coli BL21 (DE3)
Experiment: SPR binding of Arf library peptides to immobilized His-tagged Hdm2 210-304
Settings: 15 amino acid library peptides, binding for 10 minutes
Experimental: Binding studies were performed using a Biacore 3000 surface plasmon resonance (SPR) instrument (Biacore, Inc.). A Tetra-His™ Antibody (Qiagen, Inc.; Cat. #34670) was covalently attached to a carboxymethylated gold surface (C-1 chip; Biacore, Inc.). The carboxymethyl groups on the surface were activated with N-ethyl-N′-(3-dimethylaminopropyl) carbodiimide (EDC) and N-hydroxysuccinimide (NHS) and the antibody was attached at pH 7.4 in 20 mM sodium phosphate buffer, 150 mM NaCl (PBS). Reactive sites remaining on the surface were blocked by reaction with ethanolamine. […] Binding was measured by flowing the non-His-tagged analyte through the reference and ligand-containing flow cells in sequence. […] Changes in the SPR response due to solvent differences and the injection process were monitored by injection of HBS-N buffer alone. […]
Two libraries of peptides 15 amino acids in length were synthesized based on the sequence of exon 1β of mouse p19^Arf and the entire sequence of human p14^Arf. […] The ability of these peptides to bind Hdm2 fragments was determined using the surface plasmon resonance (SPR) technique with a Biacore 3000 instrument. […] Relative binding affinity was judged on the basis of the maximal SPR signal detected after binding for 10 minutes.

T1 sequence (Q00987 210-304): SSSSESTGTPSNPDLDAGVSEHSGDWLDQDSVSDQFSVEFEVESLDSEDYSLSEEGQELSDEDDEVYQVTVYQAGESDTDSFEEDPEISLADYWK

human Arf residues 86-100: 15 amino acid human p14^Arf library peptide spanning residues 86-100, contains the NoLS RRPR (LRRPRHSHPTRARRC; not fully specified (N-terminus, C-terminus); UniProt Q8N726 86-100, looked up, fragment)
binding to Hdm2 210-304 (maximal SPR signal): binds

mouse p19^Arf residues 31-45: 15 amino acid mouse p19^Arf library peptide spanning residues 31-45, contains the RRPR motif (RRPRTASCALAFVNM; UniProt Q64364 31-45, looked up, fragment)
binding to Hdm2 210-304 (maximal SPR signal): bind
